This is an account of results in patent US20220018856A1.

The target of experiment [1] is phosphorylated tau peptide antigen in which threonine at position 181 in tau protein had been phosphorylated. Nature of the experiment: sandwich CLEIA, AT270 capture; count at 40 pg/mL over count at 0 pg/mL.
Experiment [2] shares this target. Description: sandwich CLEIA (Lumipulse G), capture on AT270 magnetic particles, ALP-SA label; antigen 40 pg/mL.
The target is the same in experiment [3]. Description: sandwich CLEIA (Lumipulse G), capture on AT270 magnetic particles, ALP-SA label; antigen 100 pg/mL.
Experiment [4] has the same target. Description: sandwich CLEIA (Lumipulse G), capture on AT270 magnetic particles, ALP-SA label; antigen 200 pg/mL.
Experiment [5] shares this target. Description: sandwich CLEIA (Lumipulse G), capture on AT270 magnetic particles, ALP-SA label; antigen 400 pg/mL.
Experiment [6] has the same target. Nature of the experiment: sandwich CLEIA, AT270 capture; S/N (40/0 pg/mL) against the mixture of ALP-labeled single antibodies.
For experiment [7] the target is unchanged. Nature of the experiment: sandwich CLEIA (Lumipulse G), capture on AT270 magnetic particles, ALP-SA label; antigen 0 pg/mL (blank).
In experiment [8] the target is tau protein of the calibrator reagent for measuring total tau protein (LUMIPULSE G Total Tau Calibrators set, Fujirebio) (UniProt P10636). Nature of the experiment: sandwich CLEIA, capture on AT120 magnetic particles, SA-ALP detection; calibrator 60 pg/mL.
The target is the same in experiment [9]. Nature of the experiment: sandwich CLEIA, capture on AT120 magnetic particles, SA-ALP detection; calibrator 150 pg/mL.
Experiment [10] shares this target. Description: sandwich CLEIA, capture on AT120 magnetic particles, SA-ALP detection; calibrator 420 pg/mL.
Experiment [11] shares this target. Description: sandwich CLEIA, capture on AT120 magnetic particles, SA-ALP detection; calibrator 900 pg/mL.
The target is the same in experiment [12]. Description: sandwich CLEIA, capture on AT120 magnetic particles, SA-ALP detection; calibrator 2250 pg/mL.
For experiment [13] the target is unchanged. Nature of the experiment: sandwich CLEIA, capture on AT120 magnetic particles, SA-ALP detection; calibrator 0 pg/mL (blank).
The target is the same in experiment [14]. Description: sandwich CLEIA, AT120 capture, SA-ALP detection; calculated count at 600 pg/mL over count at 0 pg/mL.
In experiment [15] the target is tau protein in samples obtained by diluting a cerebrospinal fluid specimen with buffer (UniProt P10636). Nature of the experiment: sandwich CLEIA, AT120 capture, SA-ALP detection; diluted cerebrospinal fluid sample LoB, mean of n=10.
The target is the same in experiment [16]. Nature of the experiment: sandwich CLEIA, AT120 capture, SA-ALP detection; diluted cerebrospinal fluid sample LoQ 1, mean of n=10.
Experiment [17] shares this target. Description: sandwich CLEIA, AT120 capture, SA-ALP detection; diluted cerebrospinal fluid sample LoQ 2, mean of n=10.
Experiment [18] has the same target. Description: sandwich CLEIA, AT120 capture, SA-ALP detection; diluted cerebrospinal fluid sample LoQ 3, mean of n=10.
The target is the same in experiment [19]. Nature of the experiment: sandwich CLEIA, AT120 capture, SA-ALP detection; diluted cerebrospinal fluid sample LoQ 4, mean of n=10.
The target is the same in experiment [20]. Nature of the experiment: sandwich CLEIA, AT120 capture, SA-ALP detection; diluted cerebrospinal fluid sample LoQ 5, mean of n=10.
In experiment [21] the target is phosphorylated tau peptide antigen in which threonine at position 181 in tau protein had been phosphorylated. Description: sandwich CLEIA, AT270 capture; count at 4.5 pM over count at 0 pM.
The target is the same in experiment [22]. Description: sandwich CLEIA (Lumipulse G), capture on AT270 magnetic particles; antigen 9 pM.
For experiment [23] the target is unchanged. Nature of the experiment: sandwich CLEIA (Lumipulse G), capture on AT270 magnetic particles; antigen 18 pM.
Experiment [24] shares this target. Description: sandwich CLEIA (Lumipulse G), capture on AT270 magnetic particles; antigen 36 pM.
The target is the same in experiment [25]. Nature of the experiment: sandwich CLEIA (Lumipulse G), capture on AT270 magnetic particles; antigen 72 pM.
Experiment [26] shares this target. Description: sandwich CLEIA (Lumipulse G), capture on AT270 magnetic particles; antigen 150 pM.
Experiment [27] has the same target. Description: sandwich CLEIA (Lumipulse G), capture on AT270 magnetic particles; antigen 4.5 pM.
Experiment [28] has as its target tau protein of the calibrator reagent for measuring total tau protein (LUMIPULSE G Total Tau Calibrators set, Fujirebio) (UniProt P10636). Description: sandwich CLEIA, AT120 capture; calculated count at 600 pg/mL over count at 0 pg/mL.
Experiment [29] concerns the target phosphorylated tau peptide antigen in which threonine at position 181 in tau protein had been phosphorylated. Nature of the experiment: sandwich CLEIA (Lumipulse G), capture on AT270 magnetic particles; antigen 0 pM (blank).
Experiment [30] addresses tau protein of the calibrator reagent for measuring total tau protein (LUMIPULSE G Total Tau Calibrators set, Fujirebio) (UniProt P10636). Description: sandwich CLEIA, AT120 capture; S/N (600/0 pg/mL) against BT2-bio + HT7-bio with SA-ALP.
In experiment [31] the target is tau protein in samples obtained by diluting a cerebrospinal fluid specimen with buffer (UniProt P10636). Description: one-step sandwich CLEIA, AT120 capture; diluted cerebrospinal fluid sample LoB, mean of n=10.
The target is the same in experiment [32]. Nature of the experiment: one-step sandwich CLEIA, AT120 capture; diluted cerebrospinal fluid sample LoQ 1, mean of n=10.
Experiment [33] has the same target. Description: one-step sandwich CLEIA, AT120 capture; diluted cerebrospinal fluid sample LoQ 2, mean of n=10.
For experiment [34] the target is unchanged. Description: one-step sandwich CLEIA, AT120 capture; diluted cerebrospinal fluid sample LoQ 3, mean of n=10.
Experiment [35] shares this target. Description: one-step sandwich CLEIA, AT120 capture; diluted cerebrospinal fluid sample LoQ 4, mean of n=10.
Experiment [36] has the same target. Nature of the experiment: one-step sandwich CLEIA, AT120 capture; diluted cerebrospinal fluid sample LoQ 5, mean of n=10.
Experiment [37] addresses tau protein of the calibrator reagent for measuring total tau protein (LUMIPULSE G Total Tau Calibrators set, Fujirebio) (UniProt P10636). Description: one-step sandwich CLEIA (Lumipulse G), capture on AT120 magnetic particles; calibrator 101 pg/mL.
The target is the same in experiment [38]. Description: one-step sandwich CLEIA (Lumipulse G), capture on AT120 magnetic particles; calibrator 213 pg/mL.
Experiment [39] shares this target. Description: one-step sandwich CLEIA (Lumipulse G), capture on AT120 magnetic particles; calibrator 667 pg/mL.
Experiment [40] has the same target. Nature of the experiment: one-step sandwich CLEIA (Lumipulse G), capture on AT120 magnetic particles; calibrator 1037 pg/mL.
The target is the same in experiment [41]. Description: one-step sandwich CLEIA (Lumipulse G), capture on AT120 magnetic particles; calibrator 2639 pg/mL.
Experiment [42] addresses phosphorylated tau peptide antigen in which threonine at position 181 in tau protein had been phosphorylated. Description: sandwich CLEIA, AT270 capture; S/N (4.5 pM/0 pM) against the ALP-labeled single antibody mixtures.
For experiment [43], the target named is tau protein of the calibrator reagent for measuring total tau protein (LUMIPULSE G Total Tau Calibrators set, Fujirebio) (UniProt P10636). Nature of the experiment: one-step sandwich CLEIA (Lumipulse G), capture on AT120 magnetic particles; calibrator 0 pg/mL (blank).

In turn, “BSA linker hybrid conjugate 1 labeled with ALP (BT2 Fab′ and HT7 Fab′ on maleimidated BSA, biotinylated, with streptavidin-conjugated alkaline phosphatase) (from UniProt P02769 25-607)” yielded a S/N (40/0) in [1] of 10. Moreover, the Count value in experiment [2] is 3110 count; in experiment [3] it was 7390 count; in experiment [4], 14400 count; in experiment [5] it was 28700 count; in experiment [7], 312 count. Moreover, in experiment [6], the S/N ratio against the mixed conjugate reaction solution turned out to be 9 fold.

“BSA linker hybrid conjugate 2 labeled with ALP (BT2 Fab′ and HT7 Fab′ on biotinylated and maleimidated thiolated BSA, with streptavidin-conjugated alkaline phosphatase) (from UniProt P02769 25-607)” had a S/N (40/0) in experiment [1] of 14.3. For the same substance, the Count value in [2] amounted to 3970 count; in [3], 10100 count; in experiment [4], 19300 count; in [5] it was 37300 count; in experiment [7], 278 count. For the same substance, in experiment [6], the S/N ratio against the mixed conjugate reaction solution came to 13 fold.

In the case of “antibody mixture of biotinylated monoclonal antibody BT2 and biotinylated monoclonal antibody HT7, detected with streptavidin-labeled ALP”, the Count value in [8] was 514 count; in [9], 817 count; in experiment [10] it was 2670 count; in [11], 7070 count; in experiment [12], 38100 count; in experiment [13] it was 409 count. Further, the Count value worked out at 408 count in experiment [15]; 455 count in experiment [16]; 585 count in experiment [17]; 641 count in experiment [18]; 694 count in experiment [19]; 858 count in experiment [20]. For the same substance, in experiment [14], the S/N (600/0) was 10.

“hybrid conjugate labeled with alkaline phosphatase (BT2 Fab′ fragment and HT7 Fab′ fragment coupled to maleimidated ALP)” yielded a S/N (4.5/0) in experiment [21] of 71.7. Also, the Count value was found to be 73800 count in experiment [22]; 153000 count in experiment [23]; 297000 count in experiment [24]; 576000 count in experiment [25]; 1.35e+06 count in experiment [26]; 42600 count in experiment [27]. The Count value in [29] was 595 count; in experiment [31] it was 728 count; in [32], 982 count; in [33], 1160 count; in experiment [34], 1600 count; in [35] it was 1970 count. Besides, the Count value came out at 2380 count in experiment [36]; 9280 count in [37]; 17600 count in experiment [38]; 50400 count in experiment [39]; 83600 count in experiment [40]; 211000 count in experiment [41]. This substance showed a Count value in experiment [43] of 744 count. Further, the S/N (600/0) in experiment [28] was 60.6. In addition, the S/N ratio against the mixture of the labeled antibodies in [30] was 6 fold. Further, the S/N ratio against the ALP-labeled Fab′ fragment mixture in experiment [42] was determined as 6 fold.
